Experimental data taken from patent US20190071505A1 (UNIVERSITY OF NORTH TEXAS HEALTH SCIENCE CENTER, published 2019).

T1: NK cell inhibitory receptor NKRP1A (CD161) (human, UniProt Q12918 1-225)
T1 sequence (looked up): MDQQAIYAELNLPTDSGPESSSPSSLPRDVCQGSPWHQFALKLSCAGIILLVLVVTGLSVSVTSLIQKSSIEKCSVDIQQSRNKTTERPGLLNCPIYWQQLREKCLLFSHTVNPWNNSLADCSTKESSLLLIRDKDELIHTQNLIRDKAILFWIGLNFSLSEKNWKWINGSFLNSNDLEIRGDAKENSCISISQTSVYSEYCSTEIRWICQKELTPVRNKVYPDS

B1: Lectin-like transcript 1 (LLT1) (ligand)
chain: MHDSNNVEKDITPSELPANPGCLHSKEHSIKATLIWRLFFLIMFLTIIVCGMVAALSAIRANCHQEPSVCLQAACPESWIGFQRKCFYFSDDTKNWTSSQRFCDSQDADLAQVESFQELNFLLRYKGPSDHWIGLSREQGQPWKWINGTEWTRQFPILGAGECAYLNDKGASSARHYTERKWICSKSDIHV
B2: mouse anti-human LLT1 mAb (clone #2E5) (antibody, V domains shown)
VH: EVQLQQSGADLVKPGASVKLSCTASGFNIKDTYMHWVIQRPEQGLDWIGRIDPANGNTNYDPKFRAKATITADTSSNTAYLQLSSLTSDDTAVYYCAGMDYHFDFWGQGTTLTVSS
VL: DIVMTQSPATLSVTPGDRVSLSCRASQSISDYLHWYQQKSHESPRLLIKYASQSISGIPSRFSGSGSGSDFTLSINSVEPEDVGVFYCQNGHSFPLTFGAGTKLELRR
notes: Mouse monoclonal antibody from hybridoma 2E5; It was detected with a PE-conjugated goat anti-mouse IgG secondary antibody; also called 2E5 mAb

What was measured:
[1] = target: T1, NK cell inhibitory receptor NKRP1A …; experiment: cell-based or functional assay
[2] = target: B1; experiment: flow cytometry on 22Rv1 cells (endogenous LLT1), PE goat anti-mouse IgG secondary, ratio to mIgG1 isotype control; clone taken from the FIG. 2 legend
[3] = target: B1; experiment: flow cytometry on DU145 cells (endogenous LLT1), PE goat anti-mouse IgG secondary, ratio to mIgG1 isotype control; clone taken from the FIG. 2 legend

Row | MFIR (mean fluorescence intensity ratio) [2] | MFIR (mean fluorescence intensity ratio) [3] | Binder | percent of MDA-MB-436 LLT1 siRNA-transfected cells killed by NK cells, 5:1 E:T ratio (51Cr release) [1] [%] | percent of MDA-MB-436 LLT1 siRNA-transfected cells killed by NK cells, 25:1 E:T ratio (51Cr release) [1] [%] | percent of MDA-MB-436 scramble siRNA-transfected cells killed by NK cells, 5:1 E:T ratio (51Cr release) [1] [%] | percent of MDA-MB-436 scramble siRNA-transfected cells killed by NK cells, 25:1 E:T ratio (51Cr release) [1] [%]
1 | – | – | B1 | 21.8 | 63.4 | 18.9 | 42.2
2 | 14.4 | 12 | B2 | – | – | – | –
